In patent US20250206828A1, “ANTI-ADENOSINE RECEPTOR (A2aR) ANTIBODIES AND THE USE THEREOF” (Adept Therapeutics Inc., priority 2022, published 2025):
Positions count from the first letter of the chain named.

B1: Hu3F6-H3/Hu3F6-L5: humanized anti-A2aR IgG1 FES antibody; HCVR SEQ ID NO:60, LCVR SEQ ID NO:80 (antibody, V domains shown)
VH: EVQLVQSGAEVKKPGASVKVSCKTSGFAFTSYWMNWVRQAPGQGLEWIGRIDPSDSEAHYHHKFWGRATLTVDTSSSTVYMELSSLRSEDTAVYYCLRSLYGKGDYWGHGTTVTVSS
VL: DVVMTQTPLSLSVTPGQPASISCRSSQSLVHRNGNTYLEWYLQKPGQSPQLLIYKVSNRFSGVPDRFSGSGSGTDFTLKISRVEAEDVGVYYCYQGSHVPLTFGGGTKVEIK
B2: Hu3F6-H5/Hu3F6-L5: humanized anti-A2aR IgG1 FES antibody; HCVR SEQ ID NO:62, LCVR SEQ ID NO:80 (antibody, V domains shown)
VH: B1 VH with H61A, T74K
VL: B1 VL

How the values were obtained:
[1] = system: cynomolgus A2aR on the cell surface of cynomolgus PBMCs; assay: Binding of anti-A2aR antibodies to cynomolgus PBMC subsets (CD4 T, CD8 T, NK, NKT cells; FACS); conditions: for binding (cross-reactivity) to cynomolgus T cells (CD4+, CD8+), NK cells and NKT cells: cynomolgus PBMCs, FACS
Description: Human and cynomolgus PBMCs were purchased from Cytologics LLC (San Diego, CA) and iQ Biosciences (Berkeley, CA), respectively. 10^6 human and/or cynomolgus PBMCs in 100 μl FACS buffer (1×DPBS, 2% FBS) were incubated with anti-A2aR antibodies at 4° C. for 30 minutes. After wash, samples were stained with PE-conjugated goat-anti-human Fc antibody (1:400, Jackson ImmunoResearch Labs, Cat. 109-116-098) and other surface markers using cynomolgus cross-reactive APC/cy7-anti-CD3 (BD Bioscience, Cat. 557757), BV421-anti-CD4 (Biolegend, Cat. 317433), BV650-anti-CD8 (Biolegend, Cat. 301042) and BV711-anti-CD56 (BD Bioscience, Cat. 742661) for 30 minutes, and Zombie Green fixable Viability dye (Biolegend, Cat. 423111) were used according to manufacturer's instruction to define live immune cell subsets. After wash with FACS buffer, cells were analyzed on FACSAria (BD). Data was analyzed using Flowjo (Becton Dickinson).

[2] = system: human PBMCs (CD4 T, CD8 T, NK cells); assay: Restoration of IFN-γ and IL-2 production of NECA-suppressed T cells and NK cells (intracellular cytokine staining); format: cell-based; conditions: anti-CD3/28 Dynabeads activated, 0.1 μM NECA; for restoring IFN-γ production in human CD4 T suppressed by NECA (FIG. 5A): compared with AB928, AZD4635 and CPI-444; for restoring IL-2 production in human CD4 T suppressed by NECA (FIG. 5B): compared with AZD4635 and CPI-444
[3] = system: human PBMCs (CD4 and CD8 T cells); assay: Restoration of CD25 and CD69 activation markers on NECA-suppressed CD4 and CD8 T cells; format: cell-based; conditions: test substance 1 μg/ml
Description: Two hundred thousand (2×10^5) human peripheral blood mononuclear cells (PBMCs) human PBMC in complete IMDM medium were aliquoted into each well in a 96-well plate and the cells in the 96-well plate were pre-incubated with antibodies or small molecule inhibitors at indicated concentration for 90 minutes, followed by addition of T cell activator anti-CD3/28 dynabeads (Gibco, Cat #11132D) at ratio of 1:4 (Beads: PBMC, v/v) and NECA (DiscoverX, Cat #92-1191, final concentration […]). Cells were cultured in an incubator at 37° C., 5% CO2 for 24 hours. Cells were then collected and stimulated with anti-CD3/28 dynabeads in the presence of GolgiPlug™ Protein Transport Inhibitor (BD Biosciences, Cat #555028) according to manufacturer's manual for 4 hours. Thereafter, cells were incubated with human TruStain FcX block (Biolegend, Cat #422302) and True-Stain monocyte blocker (Biolegend, Cat #426103) for 15 minutes according the manufacturer's manual, and cells were then stained with surface markers PE-anti-CD4 (Biolegend, Cat #300550), PerCP-cy5.5-anti-CD8 (Biolegend, Cat #301032), APC/cy7-anti-CD3 (Biolegend, Cat #300426) and PE/cy7-anti-CD56 (Biolegend, Cat #362509), PE/cy7-anti-CD56 (Biolegend, Cat #362509), BV711-anti-CD25 (Biolegend, Cat #302636) and BV605-anti-CD69 (Biolegend, Cat #31938 After wash with FACS buffer, cells were stained with BV421-anti-IFN-γ (BD Bioscience, Cat #562988) and APC anti-IL-2 (BD Bioscience, cat #551383) using intracellular cytokine staining kit (BD Biosciences, cat #555028) following manufacturer's instruction. Stained samples were analyzed on FACSAria III machine. Data were analyzed using Flowjo software.

[4] = molecular target: T1, human A2aR-expressing CHO cells (Homo sapiens, UniProt P29274); assay: pH-sensitive dye (Zenon pHrodo iFL RED) based internalization assay; format: cell-based; conditions: 24 hours
T1 construct: expressed in transfected cells; host or cells: CHO
Excerpt: The Invitrogen™ Zenon™ pHrodo™ iFL RED human IgG Labeling Reagents (Cat. Z25612) Z25612) is low-pH sensitive dye and was used to determine the internalizing properties of the exemplary anti-A2aR antibodies following manufacture's instruction. The internalization of antibodies coupled with the Zenon™ pHrodo™ iFL RED human IgG Labeling reagents increase the fluorescence signal at low pH intracellular compartment in a cell, providing a method for visualizing internalization under fluorescent microscopy.
Twenty-five microliters (25 μL) of 4× working solution of Zenon™ pHrodo™ iFL IgG Labeling Reagent were also prepared in freestyle CHO expression medium and then added to each well of a 96-well plate containing antibodies. The solutions in the 96-well plate were mixed and incubated for 5 minutes at room temperature to allow the labeling complexes to form. Afterwards, fifty microliters (50 μl) of 2×10^6/ml human A2aR-expressing CHO cells were added to each well containing labeled antibodies. Cells were then incubated with the labeling complex for 24 hours under standard cell culture conditions. Cells were analyzed under immunofluorescent microscope (Invitrogen EVOS cell imaging system M5000) to visualize the internalization of antibodies by cells. Internalization of antibody was imaged using EVOS imaging systems (Invitrogen).

human A2aR = human A2aR (Homo sapiens, UniProt P29274); assay: In vitro blocking activity of purified humanized anti-A2aR antibodies and SMIs (cAMP-Glo, adenosine or NECA); format: cell-based; conditions: purified antibodies
Description: The activity of A2aR is mediated by Gas protein which activates adenylyl cyclase, resulting in the synthesis of intracellular cAMP. The level of cAMP correlates with the respective adenosine (agonist) level. cAMP can be detected using a variety of commercial cAMP assay kit.
Briefly, clear flat bottom 96 well tissue culture plate (Fisher Scientific) was coated with 50 μl per well of 50 µg/ml poly-D-lysine (Gibco, Cat. A3890401) solution at 4° C. overnight. After 3 washes with sterile endotoxin free water, the coated culture plate was left uncovered in a biosafety cabinet to dry. Freshly thawed A2aR-overexpressing HEK293 cell (BPS Bioscience) were seeded on poly-D-lysine coated plates at 10^4/well in 100 μl culture medium for 24 hours in 37° C., 5% CO2 incubator. After wash with warmed PBS once, one hundred microliters (100 μl) starvation medium (MEM (Hyclone Cat. SH30024.01)+2% charcoal stripped serum (Thermo Fisher, Cat. A3382101)+1% Penicillin/Streptomycin) were added for overnight culture in an incubator at 37° C. and 5% CO2. […] Plates were read to obtain Relative Light Unit (RLU) on SpectraMax 5 reader (Molecular Device). Data were analyzed using Prism software.

cynomolgus A2aR on the cell surface of cynomolgus PBMCs, sequence (as listed by the source): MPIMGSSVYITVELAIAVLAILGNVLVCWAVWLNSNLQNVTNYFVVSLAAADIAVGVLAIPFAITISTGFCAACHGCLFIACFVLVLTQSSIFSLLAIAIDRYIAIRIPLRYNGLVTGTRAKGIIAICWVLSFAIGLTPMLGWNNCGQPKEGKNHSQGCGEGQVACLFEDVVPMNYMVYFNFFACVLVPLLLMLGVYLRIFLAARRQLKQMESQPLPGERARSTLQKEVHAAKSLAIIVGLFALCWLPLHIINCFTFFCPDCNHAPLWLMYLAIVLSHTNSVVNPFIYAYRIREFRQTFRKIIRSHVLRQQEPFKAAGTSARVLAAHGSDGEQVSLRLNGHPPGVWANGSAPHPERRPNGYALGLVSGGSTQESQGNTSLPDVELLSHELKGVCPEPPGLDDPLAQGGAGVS
human A2aR, sequence (P29274 whole entry): as the sequence (as listed by the source) above, with N263S, T371A, S379G, G407D counted along it
T1 sequence (P29274 whole entry): as the sequence (as listed by the source) above, with N263S, T371A, S379G, G407D counted along it

Molecule | % of A2aR+ CD4+ T cells ([1]; Cynomolgus 1 PBMC) [%] | % of A2aR+ CD8+ T cells ([1]; Cynomolgus 1 PBMC) [%] | % of A2aR+ NK cells ([1]; Cynomolgus 1 PBMC) [%] | % of A2aR+ NKT cells ([1]; Cynomolgus 1 PBMC) [%] | % of A2aR+ CD4+ T cells ([1]; Cynomolgus 2 PBMC) [%] | % of A2aR+ CD8+ T cells ([1]; Cynomolgus 2 PBMC) [%] | % of A2aR+ NK cells ([1]; Cynomolgus 2 PBMC) [%] | % of A2aR+ NKT cells ([1]; Cynomolgus 2 PBMC) [%] | binding (cross-reactivity) to cynomolgus T cells (CD4+, CD8+), NK cells and NKT cells [1] | restoring IFN-γ production in human CD4 T suppressed by NECA (FIG. 5A) ([2]; listed as Hu3F6-VH3/Hu3F6-VL5) | restoring IFN-γ production in human CD4 T suppressed by NECA (FIG. 5A) ([2]; listed as Hu3F6-VH3/VL5) | restoring IL-2 production in human CD4 T suppressed by NECA (FIG. 5B) [2] | % of cells CD25+, CD4 T cells [3] [%] | % of cells CD25+, CD8 T cells [3] [%] | % of cells CD69+, CD4 T cells [3] [%] | % of cells CD69+, CD8 T cells [3] [%] | induction of internalization (pHrodo fluorescence microscopy, FIG. 3) [4] | blocking of the activities of human A2aR expressed on cell surface (RLU, FIG. 1A, 1B) (human A2aR) | restoring IFN-γ production in human CD4 T suppressed by NECA (FIG. 5A) ([2]; listed as Hu3F6-VH5/Hu3F6-VL5) | restoring IFN-γ production in human CD4 T suppressed by NECA (FIG. 5A) ([2]; listed as Hu3F6-VH5/VL5)
B1 | 1.65 | 0.05 | 6.52 | 1.06 | 1.20 | 0.11 | 2.07 | 0.45 | bound to various human and cynomolgus CD4+ and CD8+ T cells | higher potency in restoring IFN-γ production | can restore the intracellular IFN gamma and IL2 production | can restore the intracellular IFN gamma and IL2 production | 61.5 | 36 | 57.9 | 54.5 | internalization can be induced | blocked the activities of human A2aR expressed on cell surface | – | –
B2 | 4.76 | 0.15 | 5.71 | 4.14 | 10.6 | 0.41 | 2.92 | 4.28 | bound to various human and cynomolgus CD4+ and CD8+ T cells | – | – | can restore the intracellular IFN gamma and IL2 production | 62.5 | 35.8 | 58.1 | 56.1 | internalization can be induced | blocked the activities of human A2aR expressed on cell surface | higher potency in restoring IFN-γ production | can restore the intracellular IFN gamma and IL2 production
